Experimental data reported in US20250002610A1 (Genmab, published 2025).
Where a chain is given by its changes, count along the chain named.

T1: human FAPα (Fibroblast activation protein alpha), cell surface expressed (human, UniProt Q12884 1-760)
T1 construct: Endogenous on human lung fibroblasts and CAFs
T1 sequence: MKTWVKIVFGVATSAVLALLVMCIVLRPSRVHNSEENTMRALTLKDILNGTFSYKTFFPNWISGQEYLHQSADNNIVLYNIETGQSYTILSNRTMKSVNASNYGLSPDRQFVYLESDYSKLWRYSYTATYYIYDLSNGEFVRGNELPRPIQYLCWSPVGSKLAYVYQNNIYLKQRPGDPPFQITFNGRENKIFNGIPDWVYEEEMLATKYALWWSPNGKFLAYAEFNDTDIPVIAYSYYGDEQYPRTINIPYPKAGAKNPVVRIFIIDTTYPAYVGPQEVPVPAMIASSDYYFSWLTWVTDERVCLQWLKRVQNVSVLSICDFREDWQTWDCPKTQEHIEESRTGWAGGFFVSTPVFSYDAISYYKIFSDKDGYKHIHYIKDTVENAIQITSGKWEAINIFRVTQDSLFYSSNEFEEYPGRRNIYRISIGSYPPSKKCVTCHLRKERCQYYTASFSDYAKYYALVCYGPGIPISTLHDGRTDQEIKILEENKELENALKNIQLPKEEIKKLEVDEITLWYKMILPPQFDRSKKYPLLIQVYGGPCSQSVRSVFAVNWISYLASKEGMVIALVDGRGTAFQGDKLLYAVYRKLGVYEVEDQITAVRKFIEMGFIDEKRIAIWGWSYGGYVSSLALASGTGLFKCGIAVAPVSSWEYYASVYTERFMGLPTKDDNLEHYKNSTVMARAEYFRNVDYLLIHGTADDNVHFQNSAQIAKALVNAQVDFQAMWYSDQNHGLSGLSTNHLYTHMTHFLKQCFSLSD

T2: cynomolgus monkey FAPα on Expi293F cells (cynomolgus monkey (Macaca fascicularis), UniProt Q12884 1-760 (human entry))
T2 sequence: T1 sequence with S29P, V261F, E417D

B1: BisG1-FAPα-FERL/DR4-FERR (bispecific antibody, human IgG1, kappa, lambda)
heavy 1: EVQLLESGGGLVQPGGSPRLSCEASGFTFSSYALSWVRQAPGKGLEWVSAISGSGGGRYYADSVKGRFTISRDNSKNTLFLQMNSLRAEDTAVYYCAKEGYSSSGTYWDHWGQGTLVTVSSASTKGPSVFPLAPSSKSTSGGTAALGCLVKDYFPEPVTVSWNSGALTSGVHTFPAVLQSSGLYSLSSVVTVPSSSLGTQTYICNVNHKPSNTKVDKRVEPKSCDKTHTCPPCPAPEFERGPSVFLFPPKPKDTLMISRTPEVTCVVVDVSHEDPEVKFNWYVDGVEVHNAKTKPREEQYNSTYRVVSVLTVLHQDWLNGKEYKCKVSNKALPAPIEKTISKAKGQPREPQVYTLPPSREEMTKNQVSLTCLVKGFYPSDIAVEWESNGQPENNYKTTPPVLDSDGSFLLYSKLTVDKSRWQQGNVFSCSVMHEALHNHYTQKSLSLSPG
light 1: AIQMTQSPSSVSASVGDRVTITCRASQGVSSWLAWYQQKPGRAPKLLIYVASTLQSGVPSRFSGSGSGTDFTLTINSLQPEDFATYYCQQANSFPPTFGQGTRLEMKRTVAAPSVFIFPPSDEQLKSGTASVVCLLNNFYPREAKVQWKVDNALQSGNSQESVTEQDSKDSTYSLSSTLTLSKADYEKHKVYACEVTHQGLSSPVTKSFNRGEC
heavy 2: QVQLQESGPGLVKPSGTLSLTCAVSGGSISSYSWWSWIRQPPGKGLEWIGELYHSGSTNYNPSLKSRVTISVDKSKNQFSLKLRSVTAADTAVYYCVRGVATIDYWGQGTLVTVSSASTKGPSVFPLAPSSKSTSGGTAALGCLVKDYFPEPVTVSWNSGALTSGVHTFPAVLQSSGLYSLSSVVTVPSSSLGTQTYICNVNHKPSNTKVDKRVEPKSCDKTHTCPPCPAPEFERGPSVFLFPPKPKDTLMISRTPEVTCVVVDVSHEDPEVKFNWYVDGVEVHNAKTKPREEQYNSTYRVVSVLTVLHQDWLNGKEYKCKVSNKALPAPIEKTISKAKGQPREPQVYTLPPSREEMTKNQVSLTCLVKGFYPSDIAVEWESNGQPENNYKTTPPVLDSDGSFFLYSRLTVDKSRWQQGNVFSCSVMHEALHNHYTQKSLSLSPG
light 2: QSALTQPPSASGSPGQSVTISCTGTSSDVGGYNFVSWYQQDPGKAPKLLIYEVTKRPSGVPDRFSGSKSGNTASLTVSGLQAEDEADYYCSSYAGSNNVMFGGGTKLTVLGQPKAAPSVTLFPPSSEELQANKATLVCLISDFYPGAVTVAWKADSSPVKAGVETTTPSKQSNNKYAASSYLSLTPEQWKSHRSYSCQVTHEGSTVEKTVAPTECS
notes: Human IgG1 bispecific made by controlled Fab-arm exchange of IgG1-FAPα-FERL and IgG1-DR4-FERR; monovalent for FAPα and for DR4; also called GEN1057
B2: BisG1-FAPα-FEAL/b12-FEAR (bispecific antibody, human IgG1, kappa)
heavy 1: B1 heavy 1 with R240G, D269A
light 1: B1 light 1
heavy 2: QVQLVQSGAEVKKPGASVKVSCQASGYRFSNFVIHWVRQAPGQRFEWMGWINPYNGNKEFSAKFQDRVTFTADTSANTAYMELRSLRSADTAVYYCARVGPYSWDDSPQDNYYMDVWGKGTTVIVSSASTKGPSVFPLAPSSKSTSGGTAALGCLVKDYFPEPVTVSWNSGALTSGVHTFPAVLQSSGLYSLSSVVTVPSSSLGTQTYICNVNHKPSNTKVDKRVEPKSCDKTHTCPPCPAPEFEGGPSVFLFPPKPKDTLMISRTPEVTCVVVAVSHEDPEVKFNWYVDGVEVHNAKTKPREEQYNSTYRVVSVLTVLHQDWLNGKEYKCKVSNKALPAPIEKTISKAKGQPREPQVYTLPPSREEMTKNQVSLTCLVKGFYPSDIAVEWESNGQPENNYKTTPPVLDSDGSFFLYSRLTVDKSRWQQGNVFSCSVMHEALHNHYTQKSLSLSPG
light 2: EIVLTQSPGTLSLSPGERATFSCRSSHSIRSRRVAWYQHKPGQAPRLVIHGVSNRASGISDRFSGSGSGTDFTLTITRVEPEDFALYYCQVYGASSYTFGQGTKLERKRTVAAPSVFIFPPSDEQLKSGTASVVCLLNNFYPREAKVQWKVDNALQSGNSQESVTEQDSKDSTYSLSSTLTLSKADYEKHKVYACEVTHQGLSSPVTKSFNRGEC
notes: Fab-arm exchange of IgG1-FAPα-FEAL and IgG1-b12-FEAR
B3: IgG1-FAPα-FERL (antibody)
heavy: B1 heavy 1
light: B1 light 1
notes: Bivalent monoclonal IgG1 kappa

Assays:
[1] = target: T1, human FAPα (Fibroblast activation …); experiment: flow cytometry, Expi293F cells expressing human FAPα, n = 1
Description: (§1) Binding of BisG1-FAPα-FERL/DR4-FERR, BisG1-FAPα-FEAL/b12-FEAR and IgG1-FAPα-FERL to FAPα of species commonly used for nonclinical toxicology studies was assessed by flow cytometry using Expi293F cells transiently expressing FAPα from different animal species. IgG1-b12 was included as negative control.
(§2) Expi293F cells expressing recombinant FAPα from various species (human, cynomolgus monkey, dog, pig, rat or mouse) were seeded (20,000 cells/well) in 96-Well round bottom plates (Greiner Bio-one, Cat #650101). Antibody dilutions were prepared using FACS buffer, consisting of PBS (Capricorn Scientific, Cat #PBS-10XA, diluted to 1×PBS in distilled water)+1% BSA (Roche, Cat #10735086001)+0.02% Sodium Azide (Bio-World, Cat #41920044-3). Plates were centrifuged, supernatant was removed, and cells were resuspended in 100 μL of antibody dilutions (concentration range 30-0.00017 μg/mL with three-fold serial dilutions using FACS buffer) of BisG1-FAPα-FERL/DR4-FERR, BisG1-FAPα-FEAL/b12-FEAR, IgG1-FAPα-FERL and IgG1-b12 and incubated for 30 min at 4° C. […] After 30 min incubation at 4° C., cells were washed with FACS buffer and resuspended in FACS buffer supplemented with TO-PRO-3 Iodide viability marker (Invitrogen, Cat #T3605, diluted 1:4,000). Antibody binding to viable cells (gMFI of PE on TO-PRO-3 negative cells) was analyzed by flow cytometry on a FACS Celesta and FACS_Diva software (first two experiments) or iQue® 3 and FlowJo software (last experiment). gMFI was determined and visualized using GraphPad Prism. Binding curves were analyzed using nonlinear regression analysis. The concentration (pg/mL) at which 50% of the maximal effect was observed (EC₅₀) was derived from the fitted curves.

[2] = target: T2, cynomolgus monkey FAPα on Expi293F cells; experiment: flow cytometry, Expi293F cells expressing cynomolgus monkey FAPα, average ± SEM
Description: as §1, §2

Row | Binder | EC50 [1] [µg/mL] | EC50 [2] [µg/mL]
1 | B1 | 0.18 | 0.25
2 | B2 | 0.14 | 0.19
3 | B3 | 0.11 | 0.1
